Reference: US20230074436A1 (DENALI THERAPEUTICS, published 2023)
Read-outs that look alike come from different tables or passages of the source.

Experiments:
[1] = target: T1, mouse alpha-synuclein (mouse, UniProt O55042 1-140); experiment: ELISA, plate coated with the peptide or protein, antibody titrated, anti-rat HRP, A450
[2] = target: alpha-synuclein peptide 1-112 (human); experiment: as above
[3] = target: T2, alpha-synuclein peptide 1-95 (human); experiment: as above
T2 construct: synthetic peptide coated on plate

[4] = target: T3, alpha-synuclein peptide 1-61 (human); experiment: as above
T3 construct: synthetic peptide coated on plate

[5] = target: T1, mouse alpha-synuclein; experiment: direct ELISA, plate coated with 1 µg/mL recombinant mouse alpha-synuclein, antibody titrated, anti-rat HRP, A450
[6] = target: T1, mouse alpha-synuclein; experiment: ELISA, coated mouse alpha-synuclein
[7] = target: human alpha-synuclein pre-formed fibrils (human, UniProt P37840 1-140); experiment: competition ELISA: fibrils titrated in solution against 0.6 nM antibody, free antibody read on aSyn-coated plate
[8] = target: T4, human alpha-synuclein monomer (human, UniProt P37840 1-140); experiment: ELISA, coated human alpha-synuclein
[9] = target: human alpha-synuclein oligomers (human, UniProt P37840 1-140); experiment: competition ELISA: oligomers titrated in solution against 0.6 nM antibody, free antibody read on aSyn-coated plate
[10] = target: T1, mouse alpha-synuclein; experiment: direct ELISA on coated antigen;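 also: plates coated with recombinant human, mouse or rat alpha-synuclein, purified antibody titrated 10 µg/mL down to 0.6 ng/mL for 1 h, bound antibody detected by anti-rat HRP with TMB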
[11] = target: T4, human alpha-synuclein monomer; experiment: direct ELISA on coated antigen;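 also: plates coated with recombinant human, mouse or rat alpha-synuclein, purified antibody titrated 10 µg/mL down to 0.6 ng/mL for 1 h, bound antibody detected by anti-rat HRP with TMB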
[12] = target: T5, rat alpha-synuclein (rat, UniProt P37377 1-140); experiment: direct ELISA on coated antigen;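 also: plates coated with recombinant human, mouse or rat alpha-synuclein, purified antibody titrated 10 µg/mL down to 0.6 ng/mL for 1 h, bound antibody detected by anti-rat HRP with TMB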
[13] = target: T6, alpha-synuclein peptide 95-140 (human); experiment: peptide ELISA, coated fragment
T6 construct: synthetic peptide coated on plate

[14] = target: alpha-synuclein peptide 1-112 (human); experiment: peptide ELISA, coated fragment
[15] = target: T7, alpha-synuclein peptide 61-140 (human); experiment: peptide ELISA, coated fragment
T7 construct: synthetic peptide coated on plate

[16] = target: T2, alpha-synuclein peptide 1-95; experiment: peptide ELISA
[17] = target: T3, alpha-synuclein peptide 1-61; experiment: peptide ELISA
[18] = target: T6, alpha-synuclein peptide 95-140; experiment: ELISA, plate coated with the peptide or protein, antibody titrated, anti-rat HRP, A450
[19] = target: T3, alpha-synuclein peptide 1-61; experiment: as above; remark: listed apart in the source
[20] = target: T4, human alpha-synuclein monomer; experiment: direct ELISA, plate coated with 1 µg/mL recombinant human alpha-synuclein, antibody titrated, anti-rat HRP, A450
[21] = target: T6, alpha-synuclein peptide 95-140; experiment: ELISA, plate coated with the peptide or protein, antibody titrated, anti-rat HRP, A450; remark: listed apart in the source
[22] = target: T1, mouse alpha-synuclein; experiment: as above; remark: listed apart in the source
[23] = target: T2, alpha-synuclein peptide 1-95; experiment: as above; remark: listed apart in the source
[24] = target: T4, human alpha-synuclein monomer; experiment: as above
[25] = target: T7, alpha-synuclein peptide 61-140; experiment: as above
[26] = target: T3, alpha-synuclein peptide 1-61; experiment: as above; remark: listed apart in the source
[27] = target: T5, rat alpha-synuclein; experiment: direct ELISA, plate coated with 1 µg/mL recombinant rat alpha-synuclein, antibody titrated, anti-rat HRP, A450
[28] = target: T6, alpha-synuclein peptide 95-140; experiment: ELISA, plate coated with the peptide or protein, antibody titrated, anti-rat HRP, A450; remark: listed apart in the source
[29] = target: alpha-synuclein peptide 1-112 (human); experiment: as above; remark: listed apart in the source
[30] = target: T2, alpha-synuclein peptide 1-95; experiment: as above; remark: listed apart in the source
[31] = target: T4, human alpha-synuclein monomer; experiment: as above; remark: listed apart in the source
[32] = target: T7, alpha-synuclein peptide 61-140; experiment: as above; remark: listed apart in the source
[33] = target: T3, alpha-synuclein peptide 1-61; experiment: as above; remark: listed apart in the source
[34] = target: alpha-synuclein peptide 1-112 (human); experiment: peptide ELISA
[35] = target: T8, gamma-synuclein protein (human, UniProt O76070 1-127); experiment: ELISA on coated synuclein, 1 ug/mL
T8 construct: species read from 'recombinant human alpha-synuclein protein, beta-synuclein protein, and gamma-synuclein protein'

[36] = target: T9, beta-synuclein protein (human, UniProt Q16143 1-134); experiment: ELISA on coated synuclein, 1 ug/mL
T9 construct: species read from 'recombinant human alpha-synuclein protein, beta-synuclein protein, and gamma-synuclein protein'

[37] = target: alpha-synuclein phosphorylated at serine 129 (human, UniProt P37840 1-140); experiment: SPR (Biacore), antibody captured, p129-Syn injected
[38] = target: T4, human alpha-synuclein monomer; experiment: SPR (Biacore), antibody captured, monomer injected, 1:1 fit

Binder	EC50 (read off the curve) [5] [mg/L]	antibody concentration at which ELISA is positive [6] [ng/mL]	IC50 [7] [nM]	antibody concentration at which ELISA is positive [8] [ng/mL]	IC50 [9] [nM]	Bmax (O.D. at 450 nm) [10] [OD]	EC50 [10] [nM]	Bmax (O.D. at 450 nm) [11] [OD]	EC50 [11] [nM]	Bmax (O.D. at 450 nm) [12] [OD]	EC50 [12] [nM]	antibody concentration at which ELISA is positive [13] [ng/mL]	antibody concentration at which ELISA is positive [14] [ng/mL]	antibody concentration at which ELISA is positive [15] [ng/mL]	antibody concentration at which ELISA is positive [16] [ng/mL]	antibody concentration at which ELISA is positive [17] [ng/mL]	EC50 (read off the curve) [20] [mg/L]	also measured
22E11 (antibody, IgG1, V domains shown, also called clone 22E11) VH: AVQLVESGGGLVQPKESLKISCAASGFTFSTAAMYWVRQAPGKGLEWVTRIRTKPNNYATYYADSVKGRFTISRDDSKSMVYLQMDNLKTEDTAMYYCTADYYDGTPFAYWGQGTLVTVSS VL: AVVMTQTPVSLSVSLGGQVSISCRSSQSLVHNNGITYLSWYLQKPGQSPQLPIYKVSNRFSGFSDRFSGGGSGTDFTLKISRVEPDDLGLYYCGQGTQYPYTFGAGTKLELK	~0.3	40 to 160	28.1	< 40	6.96	0.58	0.26	1.05	0.4	0.5	1	< 40	160 to 640	< 40	> 2600	> 2600	–	EC50 (read off the curve) [1]: ~0.3 mg/L; EC50 (read off the curve) [2]: ~0.3 mg/L; binding result [3]: no binding (tested: 10 µg/ml (1 on the log axis)); binding result [4]: no binding (tested: 10 µg/ml (1 on the log axis))
18B4 (antibody, IgG2b, V domains shown, also called clone 18B4) VH: EVQLVESGGGLVQPGRSLKLSCAASGFTFSSFAMAWVRQAPKKGLEWVATITSGGSKTYYPDSVKGRFTISRDNAKSTLYLQMDSLRSEDTATYYCAKGYFDYWGQGVMVTVSS VL: DVVLTQTPPTLSATIGQSVSISCRSSQSLLHSNGNTYLHWLLQRPGQSPQLLIYLVSRLESGVPNRFSGSGSGTDFTLKISGVEAEDLGVYYCVQGTHAPLTFGSGTKLEIK	~0.08	40 to 160	85.7	< 40	37.6	–	0.08	1.36	0.05	1.21	0.3	< 40	160 to 640	< 40	> 2600	> 2600	~0.06	EC50 (read off the curve) [21]: ~0.07 mg/L; EC50 (read off the curve) [22]: ~0.08 mg/L; binding result [23]: no binding (tested: 10 µg/ml (1 on the log axis)); EC50 (read off the curve) [24]: ~0.06 mg/L; EC50 (read off the curve) [25]: ~0.08 mg/L; binding result [26]: no binding (tested: 10 µg/ml (1 on the log axis)); EC50 (read off the curve) [27]: ~0.4 mg/L

More lines, main results first:

EC50 (read off the curve) [5] [mg/L]	antibody concentration at which ELISA is positive [6] [ng/mL]	IC50 [7] [nM]	antibody concentration at which ELISA is positive [8] [ng/mL]	IC50 [9] [nM]	Bmax (O.D. at 450 nm) [10] [OD]	EC50 [10] [nM]	Bmax (O.D. at 450 nm) [11] [OD]	EC50 [11] [nM]	Bmax (O.D. at 450 nm) [12] [OD]	EC50 [12] [nM]	antibody concentration at which ELISA is positive [13] [ng/mL]	antibody concentration at which ELISA is positive [14] [ng/mL]	antibody concentration at which ELISA is positive [15] [ng/mL]	antibody concentration at which ELISA is positive [16] [ng/mL]	antibody concentration at which ELISA is positive [17] [ng/mL]	EC50 (read off the curve) [20] [mg/L]	Binder	also measured
–	–	–	–	–	–	–	–	–	–	–	< 40	–	–	–	> 2600	–	16F3 (antibody, IgG2a, V domains shown, also called clone 16F3) VH: AVQLVESGGGLVQPKESLKISCAASGFTFSNGAMNWVRQAPGKGLEWVARIRTKPNNYATYYADSVKGRFTISRDDSKSMVYLQMDDLKTEDTAMYYCTADGATPFAYWGQGTLVTVSS VL: DVVLTQTPPTLSATIGQSVSISCRSSQSLLHSNGNTYLHWLLQRPGQSPQLLIYLVSRLESGVPNRFSGSGSGTDFTLKISGVEAEDLGVYYCVQGTHAPFTFGSGTKLEIK	EC50 (read off the curve) [18]: ~0.3 mg/L; binding result [19]: no binding (tested: 10 µg/ml (1 on the log axis))
–	640 to 2600	5.86	< 40	30.7	0.16	5.86	1.14	0.15	0.2	2.97	< 40	–	< 40	> 2600	> 2600	~0.2	1H5 (antibody, rat IgG2b, V domains shown, also called clone 1H5) VH: AVQLVESGGGLVQPKESLKISCAASGFTFSDAAMYWVRQAPGKGLELVARIRTKPNNYATYYADSVKGRFTISRDDSKSMVYLQMGNLKTEDTAMYYCSADFHYFDYWGQGVMVTVSS VL: DIQMTQSPSVLSASVGDRVTLSCKAGQNINKNLDWYQQKLGEAPKLLISFTNNLQTGVPSRFSGSGSGSDYTLTISSLQPEDVATYYCYQYNSGWTFGGGTKLELK	EC50 (read off the curve) [28]: ~0.3 mg/L; binding result [29]: no binding (tested: 10 µg/ml (1 on the log axis)); binding result [30]: no binding (tested: 10 µg/ml (1 on the log axis)); EC50 (read off the curve) [31]: ~0.2 mg/L; EC50 (read off the curve) [32]: ~0.2 mg/L; binding result [33]: no binding (tested: 10 µg/ml (1 on the log axis)); antibody concentration at which ELISA is positive [34]: > 2600 ng/mL; binding result [35]: no binding; binding result [36]: no binding; Kd [37]: 23.7 nM; koff [37]: 0.00113 s⁻¹; kon [37]: 47500 M⁻¹ s⁻¹; Kd [38]: 16.2 nM; koff [38]: 0.00169 s⁻¹; kon [38]: 104000 M⁻¹ s⁻¹
